Measured values: doi:10.1101/2022.12.21.521443 (2022)

Target: S. cerevisiae Pbs2 target peptide (S. cerevisiae, UniProt P08018)
Sequence (P08018 whole entry): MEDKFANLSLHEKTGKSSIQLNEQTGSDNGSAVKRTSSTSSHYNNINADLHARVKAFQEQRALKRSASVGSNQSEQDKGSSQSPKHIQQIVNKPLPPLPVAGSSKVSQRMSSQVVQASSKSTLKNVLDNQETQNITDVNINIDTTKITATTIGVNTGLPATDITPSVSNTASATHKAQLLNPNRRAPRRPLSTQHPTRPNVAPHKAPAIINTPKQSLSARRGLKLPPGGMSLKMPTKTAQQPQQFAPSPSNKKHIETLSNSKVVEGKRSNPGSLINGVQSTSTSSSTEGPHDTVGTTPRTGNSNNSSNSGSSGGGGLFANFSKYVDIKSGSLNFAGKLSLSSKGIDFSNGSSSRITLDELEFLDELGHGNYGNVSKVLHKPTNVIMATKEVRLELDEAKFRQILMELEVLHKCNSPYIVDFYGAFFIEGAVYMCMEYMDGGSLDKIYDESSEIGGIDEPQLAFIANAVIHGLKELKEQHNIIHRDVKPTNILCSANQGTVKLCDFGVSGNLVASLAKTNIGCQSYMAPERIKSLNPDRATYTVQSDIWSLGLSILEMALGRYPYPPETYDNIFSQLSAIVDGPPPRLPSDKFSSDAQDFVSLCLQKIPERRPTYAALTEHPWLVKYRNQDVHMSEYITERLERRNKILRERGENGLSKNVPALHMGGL

B1: wild-type S. cerevisiae Sho1 SH3 domain (domain or fragment)
chain: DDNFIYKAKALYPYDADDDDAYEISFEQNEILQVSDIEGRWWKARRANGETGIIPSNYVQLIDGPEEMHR
Kd: 3000 nM
